Results as given in paper PMC5727127, “H3K14ac is linked to methylation of H3K9 by the triple Tudor domain of SETDB1” (Nature Communications, 2017).
Values belong to the substance of their own block, whether it stands above or below them.

Legend:
[1] = target: 3TD of SETDB1, W358A mutant, as used in ITC and crystals (UniProt Q15047); experiment: ITC; 25 °C, VP-ITC, 20 mM Tris/HCl pH 7.0, 150 mM NaCl; protein 50 to 100 μM, ligand 1–2 mM; one-site binding model
[2] = target: H3K9me1/K14ac peptide in solution (ITC); experiment: ITC; details: read off a plot
[3] = target: H3K9me2/K14ac peptide in solution (ITC; crystal with W358A), limits not stated; experiment: ITC; details: read off a plot
[4] = target: H3K9me3/K14ac peptide in solution (ITC; crystals); experiment: ITC; details: read off a plot

Substance: H3K9me2/K14ac peptide in solution (ITC; crystal with W358A), limits not stated
- fold reduction of affinity against wildtype 3TD [1]: 18 fold

Substance: H3K9me3/K14ac peptide in solution (ITC; crystals)
- fold reduction of binding against wildtype 3TD [1]: 2 fold

- ratio to parent [2]: 1.5
- ratio to parent [3]: 1.1
- ratio to parent [4]: 0.18
Substance: triple Tudor domain (3TD) of SETDB1, wildtype, as used in solution (ITC, NMR, crystals) (from UniProt Q15047) Y268A
